The values below come from the nanobody polyreactivity screen of Harvey et al. (2022).

The data set can be described thus: yeast display, Sf9 membrane polyspecificity reagent, FACS + sequencing; frameworks hold sequencing errors. The gist of the method:
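Sorting gates, low and high (top ~1%), were placed on anti-HA fluorescence to track expression and on streptavidin fluorescence to track reagent binding. A clone's polyreactivity label is taken from the gate it came out of. The reagent was 10% biotinylated, detergent-solubilized Sf9 membrane, applied for 1 hour at 4 °C to galactose-induced yeast display cells.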
“QVQLVDSGGGLVQAGGSLRLSCASSGIIFGYYAMGWYRPAPGKERELVAGITYRTGSTDYADSVKGRFTISRDNAKNTVYFQMNSLKPEDTAVYFCAATQDKRKYSSCYYYWGQGTQVTVSS”: the “polyreactivity (PSR sort gate)” value was “high polyreactivity”.
Under “QVQLVDSGGGLVQAGGSLRLSCDASGSTFRGTVMGWYRQAPGKERELVAGIYSGGSTYYADSVKGRFTISRDNAKNTVYLQMNSLKPEDTAVYYCAAYRRQHIIYNDWGQGTQVTVSS” stands “high polyreactivity”.
Under “QVQLVDSGGGLVQAGGSLRLSCPASGFIFAKYAKGWSRQAPGKERELGAAITSGGSTNYADSVTGRFTISRDNAKNTVYLQMHSLKPEDTAVYYCNRGFDWWYRYRHYDYWGQGTQVTVSS” stands “low polyreactivity”; under “QVQLVDSGGGLVQAGGSLRLSCPASGFNFYRNAMGSYRQAPGKERELVAAISGSGGRTYYADSVKGRFTISRDNAKNTVYLQMNSLKPEDTAVYYCATDYAYSPYRYWTRYDYWGQGTQVTVSS”, “high polyreactivity”; under “QVQLVDSGGGLVQAGGSLRLSCPASGRTFYVYDMGWYRQSPGKERELVAVISSSGSTNYADSVKGRFTISRDNAKNTVYLQMNSLKPEDTAVYYCNRRRWYFFSLDFWGEGTQVTVSS”, “high polyreactivity”.
In the case of “QVQLVDSGGGLVQAGGSLRLSCPASGSTFSRYAMGWYRQAPGKERELVAAISRSGGTTYYADSVKGRFTISRDNAKNTVYLQMNSLKPEDTAVYYCNDRGRYEYGYWGQGTQVTVSS”, the “polyreactivity (PSR sort gate)” value is “high polyreactivity”.
Under “QVQLVDSGGGLVQAGGSLRLSSAASGRTLVNYAMGCYRQAPGKERELVAAISYSGGSTYYADSVKGRFTISRDNAKNTVYLQMNSLKPEDTAVYYCAAYYYQRYDYWGQGTQVTVSS” stands “high polyreactivity”; under “QVQLVDSGGGLVQAGGSLRLTCAASGIIFRLYGMGWYRQAPGKEREFVATITWRGGRTNYADSVKGRFTISRDNAKNTVYLQMNSLKPEDTAVYYCAKVVRYARSNEYDSWGQGTQVTVSS”, “low polyreactivity”.
Next, “QVQLVDSGGGLVQAGGSLRLTFAASGSIFAWYAMGLYRQEPGKERELVAVITRGGSTNYADSVKGRFTISRDNAKNTVYLPMISQKPEDTAVYYCAAGSYYSWYPFDYWGQGTQLTVSS”: “low polyreactivity”.
Next, “QVQLVDSGGGLVQAGGTLRLSCASSGSTFYYYAMGWYRQAPGKERELVAGITSGGSTNYADSVKGRFTISRDNAKNTVKLLMNSLKPEDTADYYCNARYRKYRYRYDYWGQGTQVSVSS”: “low polyreactivity”; “QVQLVDSGGGLVQAGGTLRLSCSASGRTFPTYAMGWYRQAPGKEREVVAAISSSGCSTYYADSVKGRFTISRDNAKNSVYLQMHSLKPEDTAVYYCAALRDRNLNPGYDYWGQGTQLTVSS”: “low polyreactivity”; “QVQLVDSGGGLVQARGTLRLSCAASGSTFRVYAMGWYRQAPGKEMELVAAISSSGGITYYADSVKGRFPISRDNAKNSVYLQMNSLKPEDTEVYYCAKGTVIHVLYDYWGQGTQVTVSS”: “low polyreactivity”.
As for “QVQLVDSGGGLYQAGGSLSLTCAASGSIFDFNAMGWYRQAPGKERELVAAISGSGARTYYADSVKGRFTIARDNAKHTVYLQLNSLKPEDTAVYLCARPYVYGYDSWGQGTQVTFSS”, the “polyreactivity (PSR sort gate)” value was “high polyreactivity”.
Under “QVQLVDSGGRLFQAGGSLRLSCAAYGFSFSYYDMGSYRQAPGKERELVAAIFSNGRTYYADSVKGRFTISRDNAKNTVYLQMNSLKPVDTAVYYCAAAYVGYYYSRGFDYWGQGTQVTVSS” stands “high polyreactivity”; under “QVQLVDSGRGFVQAGGSLRLSCAASGSTYPGNEMGRSRQAPGKESELVAAIRWSGGSTYYADSVKGRFTISRDNAKNNVYLQMNSLKPEDTAVYYCAADYLIPDTYLFQAYVGFEYWGQGTLVTVSS”, “low polyreactivity”; under “QVQLVDSGVGLVQAGGSLRLSCAASGNTFSSYTMGWYIQAPGKERELVAGISRTGTSTYYADSVKGRFTISRDNAKNSVYLQMNSLKPEDTAVYYCAARTGWWYYWGQGTQVSVSS”, “high polyreactivity”.
Next, “QVQLVDSGVGLVQAGGSLRLSCAASGSIFYQNAMGWYRQAHGSERELVAAITSDGSTYYADSVKGRFTISRDNAKNTVYLQMNSLKPEDTAVYYCPAEYYGHRYDYCGQGTQVTVSS”: “low polyreactivity”; “QVQLVDSRGGLVQAGGSLRLSCAASGIIFFDYTMGWYSQAPGKERELVASITRGGSTYADSVKGRFTISRDNAMNSVYLQMNSLKPEDTAVYYCAATIVDYDAYGYWGQGTQVTVSS”: “low polyreactivity”; “QVQLVDSRGGLVQAGGSLRLSCAASGLTFGPYAMGRYRQAPGKEREFVAAITWRGGRTNYADSVKGRFTMSRDNAKNTVYLQMNSLKPEDTAVYYCNAVISPHQWIRGGDSWGQGTQVTVSS”: “low polyreactivity”.
Next, “QVQLVDSRGGLVQAGGSLRLSCSASGSIFPANVMGWYRQAPGKERELVASINSGDDTNYADSVKGRFTISRDNAKNTVYLQMNSLKPEDTAVYYCATGDWYPYGDYIYDYWGQGTQVTVSS”: “low polyreactivity”; “QVQLVDSVGGLVQAGGSLRISCAASGSIFGFYAMGWYRQSPGKERELVAAISQRGGNTYYADSVKRRFTISRDNAKNTVYLQMNSLKPEDTAFYFCASDKHPYKRHWYYTYDYWGLGTQVTVSS”: “high polyreactivity”.
For “QVQLVDSWGGLVQAGGSLRLSCAASGSIFTLYDMGWYRQAPGKERELVAAIDWSGGSTRYADSVKGRFTISRDNAKNTVYLQMNSLKPEDTAVYYCAKDLGGRYGRYRYDYWGQGTQVTVSS”, the “polyreactivity (PSR sort gate)” value is given as “high polyreactivity”.
Next, “QVQLVDTGGGLVQAGGILRIRCAASGRIFHGNSMVCYRQAPGKERELVAAITWGGTRTYYSDSVKGRFTISRDNAKNTVYLQMNSLKPEDTAVYYCATDYGYTDRVTSGFDYWGQGNQVTVSS”: “low polyreactivity”.
Next, “QVQLVDTGGGLVQAGGSLRLSCAASGLTIYGNAMGWSRQAPGKERELVAAISSSGGTTYYADSVKGRFTISRDNSKNTVYLQMNSLKPEDTAVYYCAARPSGGYESTRTRDYWGQGTQVTLSS”: “low polyreactivity”.
Under “QVQLVEAGGGLVQAGGILRLSSAASGSIFPLNAMGWYRQAPGKERELVAAISESGGRTYYADSVNGRFTISRDNAKNTVYLQMNSLNPEDTAVYYCATVRLARKSAPYDYWGQGTQVTVSS” stands “high polyreactivity”; under “QVQLVEAGGGLVQAGGSLRLSCAASGRTFLRYTMGWYRQAPGKEREWVASITRGGSTYYADSVKGRFTISRDNAKNTVYLQMNSLKPEDTAVYYCAAGKALLSRYYYWGQGTQVTVSS”, “high polyreactivity”; under “QVQLVEAGGGLVQAGGSLRLSCAASGRTFPVNPMGGYRQAPGKERELVAAISKRAGSTYYADSVKGRFTISRDNAKNTVYLQMNSLKPEDTAVYYCAARWRVIYAEFDYWGQGTQVTVSS”, “high polyreactivity”.
In the case of “QVQLVEAGGGLVQAGGSLRLSCAASGRTFTYYTMGWYRQAPGKERELVATITSGGITNYADSVKGRFTISRDNAKNTVYLQMNSLKTEDTAVYYCDKRWVNKYYYWGQGTQVTVSS”, the “polyreactivity (PSR sort gate)” value is reported as “high polyreactivity”.
For “QVQLVEAGGGLVQAGGSLRLSCAASGRTLYPYAMGWYRQAPGKERELVAAISSRGGSTYYADSVKGRFTISRDNAKNTVYLQMNSLKPEDTAVYYCAKSYRKILSITGLVPWTDYFWGQGTQVTVSS”, the “polyreactivity (PSR sort gate)” value is on record as “low polyreactivity”.
Under “QVQLVEAGGGLVQAGGSLRLSCAASGYIFFFYAMGWYRQAPGKERELVASITYRGGSTYYADSVKGRFTISRDNAKNTVYLQMNSLIPEDTAVYYCNVDGGGPLGPQGFPFDYWGQGTQVTVSS” stands “low polyreactivity”.
